This is an account of results in publication PMC8892312 (Proceedings of the National Academy of Sciences of the …, 2022).

Sequences and labels used below:
B1: HBsu (histone-like protein HU of B. subtilis), recombinant (natural protein)
chain: MNKTELINAVAEASELSKKDATKAVDSVFDTILDALKNGDKIQLIGFGNFEVRERSARKGRNPQTGEEIEIPASKVPAFKPGKALKDAVAGK
B3: Gp46 from bacteriophage SPO1 (natural protein)
chain: MMTEDQKFKYLTKIEELEAGCFSDWTKEDITGDLKYLKKGIIEESIELIRAVNGLTYSEELHDFTQEIIEELDISPL

Data set [1] concerns the molecule itself. Put plainly: SEC-MALS. In general terms: Size exclusion chromatography separates by hydrodynamic size, large species first.
The target of data set [2] is T1, HBsu (HU of B. subtilis) (Bacillus subtilis, UniProt P08821 1-92).
T1 sequence: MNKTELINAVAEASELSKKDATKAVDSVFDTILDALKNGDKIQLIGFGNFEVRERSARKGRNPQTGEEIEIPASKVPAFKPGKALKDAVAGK
Briefly: ITC. For orientation: In ITC the heat of successive injections is recorded.

Data set [3] addresses T2, HBsu^I71A (Bacillus subtilis, UniProt P08821 1-92, I71A).
T2 sequence: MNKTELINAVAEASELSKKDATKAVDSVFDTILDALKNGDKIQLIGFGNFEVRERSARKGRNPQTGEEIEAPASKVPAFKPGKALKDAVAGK
Put plainly: ITC.

The target of data set [4] is T3, HBsu^R53N/R55N/R58N (Bacillus subtilis, UniProt P08821 1-92, R53N | R55N | R58N).
T3 sequence: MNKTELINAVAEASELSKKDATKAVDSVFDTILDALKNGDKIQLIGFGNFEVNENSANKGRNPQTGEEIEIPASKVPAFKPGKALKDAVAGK
Put plainly: ITC.

Data set [5] concerns the target B1. Briefly: ITC.
In data set [6] the target is B1. Briefly: SPR. In general terms: In SPR one partner is held on a chip, and binding of the other changes the refractive index at the surface.
Data set [7] addresses HU of Acinetobacter baumannii (Acinetobacter baumannii). Put plainly: ITC.
Data set [8] concerns the target B1. Briefly: ITC. The source holds these as a separate data set.
Data set [9] deals with B3. Briefly: ITC.

Turning to B1, the binding result in [1] is reported as “binds”.

B2: dsDNA (DNA1/DNA2) (dsDNA)
DNA 1: TGCTTATCAATTTGTTGCACC
DNA 2: GGTGCAACAAATTGATAAGCA
On to B2, for which the affinity in data set [2], expressed as Kd, was 359 ± 38 nM.
Regarding B3, the Kd – broadly, the free concentration of one partner at which half of the binding sites on the other are occupied at equilibrium, for simple one-to-one binding – was 6410 ± 3540 nM in data set [3], 277 ± 50 nM in data set [5], 5870 ± 110 nM in data set [6] and 300 nM in [7]. Besides, in [4], the binding result is reported as “binds”.

B4: Gp46^D63N (natural protein)
chain: MMTEDQKFKYLTKIEELEAGCFSDWTKEDITGDLKYLKKGIIEESIELIRAVNGLTYSEELHNFTQEIIEELDISPL
Consider B4, for which, in data set [8], the binding result is recorded as “binds”.

B5: HU of Plasmodium falciparum (natural protein)
chain: RRAFINVHKNNIINNKLSVNNPYNKNALYQSSSKIPMSQAITKKQIIEEVSMETKENKKTVEKIMNGIFDNIYKHLENNEKIYIHKFGMFYNIFRKKRCIKNLRTKEDIEIESSHMPHFKFSKVFKELIKQNVKVKKGKGVSTNDHDLDEDDMNMDNINESFKENVNEKLIY
Consider B5, for which, in [9], the Kd is around 300 nM.
